For 1 sequence, binding results are on record in paper doi:10.1101/2025.04.08.647683.

The target in data set [1] is T1, QuiR2 (Listeria monocytogenes EGD-e) (UniProt Q8Y543).
T1 sequence: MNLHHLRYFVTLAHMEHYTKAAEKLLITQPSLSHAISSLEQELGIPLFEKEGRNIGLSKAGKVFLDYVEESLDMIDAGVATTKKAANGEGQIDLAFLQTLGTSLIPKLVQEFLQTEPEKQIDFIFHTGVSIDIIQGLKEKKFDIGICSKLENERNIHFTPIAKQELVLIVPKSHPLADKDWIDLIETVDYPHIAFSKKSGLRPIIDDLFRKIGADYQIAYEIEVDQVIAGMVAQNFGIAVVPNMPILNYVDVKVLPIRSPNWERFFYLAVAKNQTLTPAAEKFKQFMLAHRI
Kind of data set: EMSA. Background: Mobility shift assays separate free from complexed probe on a gel.

For data set [2], the target named is T2, QuiR2;QuiR (Listeria monocytogenes EGD-e;Listeria monocytogenes EGD-e?) (UniProt Q8Y543+Q8Y9N7).
T2 sequence 1: T1 sequence
T2 sequence 2: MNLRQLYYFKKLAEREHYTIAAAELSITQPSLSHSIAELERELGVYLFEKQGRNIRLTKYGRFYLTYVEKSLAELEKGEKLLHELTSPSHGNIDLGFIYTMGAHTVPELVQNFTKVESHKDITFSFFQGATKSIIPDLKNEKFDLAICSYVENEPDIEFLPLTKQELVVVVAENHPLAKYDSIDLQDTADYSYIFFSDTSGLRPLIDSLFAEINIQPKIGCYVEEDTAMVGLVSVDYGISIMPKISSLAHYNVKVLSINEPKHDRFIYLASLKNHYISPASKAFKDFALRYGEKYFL
Description: EMSA.

Take “CGCAAGTTCATCGGTTAACCTCCTCGGAATGCCTTGATAACTCTATTGTAAGCGATTGTATAGAAAAAATCTATGGATAAATCGAAAAATATACATTAGATTAATAATTATTCCTGACTTATAATGAAAGAGAAATAAGATTGTGCATTATTGAACGTGAATAATGTAACAAATCATTTGCTGAGATTATAGTCGCAGGAGGCTTATTATGACAGATTATCCGAG (double strand) [qui1 intergenic region probe (225 nt)]”: the binding entry in data set [1] and in data set [2] was “binds” each time.
